Each sequence was assayed on MS2 coat protein (assay: apparent KD of MS2 coat protein, switch ON state; designed switch direction (-1 OFF switch, 1 ON switch): -1; higher = weaker reporter binding). Conditions: FMN input: 0 or 200 uM; Eterna round: R93 (includes R88 designs).
Outline: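 Values are apparent KD, taken as the median for each design of fits to normalised binding curves from individual clusters. The designed RNA switches were transcribed on-chip from Illumina sequencing clusters and exposed to SNAP-549-labelled MS2 coat protein at twofold increasing amounts from 0.7 or 1.5 nM to 3 µM. Titration used 100 mM Tris-HCl pH 7.5, 80 mM KCl and 4 mM MgCl2, without or with constant ligand.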

Question: For “UAAAGACAUGAGGAUCACCCAUGUGAGGAUAUCGGAGAUGACGGAACAUCGAGUUCGGCGAGAAGGCGCAGGAA [JR_Exc001_Sub407]”, which “apparent KD of MS2 coat protein” value is on record?
Answer: 30.1 nM

Question: For “AACAGUACAGGAUAUACAUGAGGAUCACCCAUGUGAAAAUUAAGUGGAGUACCACAAGGUAGAAGGGUACUGGA [Mat - Exclusion 3 - Eli mod - D61]”, which “apparent KD of MS2 coat protein” value is on record?
Answer: 27.7 nM

Question: For “CUCUUGUCAGGAUAUUGAAGAAAAGAAGAGAAAGAAAAGAACAAGAAGGGACAUGAGGAUCACCCAUGUAAGAA [EteRNA is fun!]”, which “apparent KD of MS2 coat protein” value is on record?
Answer: 61.8 nM

Question: With “AAAAAUGGAGGAUAUACAUGAGGAUCACCCAUGUGAGACCAAGAAAAAGAAAAAGAAAGUAGAAGGCCAUAAAA [Ex 3 May 24]” as the sequence, how does the “apparent KD of MS2 coat protein” value read?
Answer: 24.5 nM

Question: Which “apparent KD of MS2 coat protein” value does the source give for “AGGAAACAUGAGGAUCACCCAUGUGAGGAUAUUUGAAAGAAAAGAAAAGAAAGAAGAAGAAGAAGGCACAAGAA [Merneith]” here?
Answer: 17.6 nM

Question: For “AAGUAUAGAGGAUAUACAUAGAUACAGAUUCAUGUAGAACUACAUGAGGAUCACCCAUGUAGAAGGCUAUAAUA [AJ 34]”, which “apparent KD of MS2 coat protein” value is on record?
Answer: 19.4 nM

Question: For “AAAAAACAUGAGGAUCACCCAUGUGAGGAUAUGCAAAACCCAAAUAAAAAGAGAAAAAGCAGAAGGCACAACAA [wbt round 1 mod 3]”, which “apparent KD of MS2 coat protein” value is on record?
Answer: 15.7 nM

Question: “GCAUGCGAAGGAUAUACAUGAGGAUCACCCAUGUGAGAGAAAAAAGUGAGAAAGAAAAGUAGAAGGUCGUGUGG [salish99-ex3-94]” was tested. Which “apparent KD of MS2 coat protein” value did it give?
Answer: 40.7 nM

Question: “CGCAAGUCAGGAUAUUCGACAGGUAAAUCAGUGGAUCAGAAGGAGAAGGGACAUGAGGAUCACCCAUGUAUGUA [JR_Exc004_Sub407]” was tested. Which “apparent KD of MS2 coat protein” value did it give?
Answer: 49.4 nM

Question: For “AGAAAACAUGAGGAUCACCCAUGUGAGGAUAUGUAAAAGAAAAGAAAAGAAAGAAGAAACAGAAGGCACAAGAA [Nynetjer]”, which “apparent KD of MS2 coat protein” value is on record?
Answer: 24.9 nM

Question: How did the “apparent KD of MS2 coat protein” value turn out when “AAAAAACAUGAGGAUCACCCAUGUCAGGAUAUACAAAAGAAAAGAAAAAGAAAAGAAAGUAGAAGGGACAAAAA [mod1]” was run?
Answer: 23 nM

Question: How did the “apparent KD of MS2 coat protein” value turn out when “AAAAGGUUAGGAUAUGCGUGGAAAAAGUGUAUCUAAAAAAAACAUGAGGAUCACCCAUGUAGAAGGGACUUAAA [Banishment 5 - Jieux - Exclusion 2]” was run?
Answer: 49.7 nM

Question: For “AAGAAGUGAGGAUAUUCGGAUAGGAAAACGAAAACCUAUCCGAAGAAGGCACAUGAGGAUCACCCAUGUAAAAA [Mat - Exaclusion 4 - Eli mod - D41]”, which “apparent KD of MS2 coat protein” value is on record?
Answer: 36.7 nM

Question: How did the “apparent KD of MS2 coat protein” value turn out when “AAUAAGUGAGGAUAUACUAAAGAAAUGAAAAGAAAUAAAGAACAUGAGGAUCACCCAUGUAGAAGGCACAAUAA [Sekheperenre]” was run?
Answer: 24.4 nM

Question: How did the “apparent KD of MS2 coat protein” value turn out when “AGAAAGUCAGGAUAUCAGAAUAAGUCGAAAACGACUAGUAAUGAGAAGGGACAUGAGGAUCACCCAUGUAAGAA [Ex4 sub 3]” was run?
Answer: 49 nM

Question: Which “apparent KD of MS2 coat protein” value does the source give for “AUCGAUCGAGGAUAUACAUGAGGAUCACCCAUGUAAAAAAAAAAAAAGGCCUCAGGACGUAGAAGGCGACGCAA [JR_Exc003_Sub402]” here?
Answer: 16.3 nM

Question: With “AACUGGCUAGGAUAUACGUAAUAAAAUAUCAGUGAGAUUUCACAUGAGGAUCACCCAUGUAGAAGGAGCAAAAU [Esxereorar]” as the sequence, how does the “apparent KD of MS2 coat protein” value read?
Answer: 24.5 nM

Question: With “AGCAAGUGAGGAUAUGCGAAGUCAGGACAAACACUGACGAAGCAGAAGGCACAUGAGGAUCACCCAUGUAAGCA [Mat - Exaclusion 4 - Eli mod - D60]” as the sequence, how does the “apparent KD of MS2 coat protein” value read?
Answer: 28.8 nM

Question: How did the “apparent KD of MS2 coat protein” value turn out when “AAAAAGGCAGGAUAUGCAUACACACGAAAAAAAAAACUGGGACAUGAGGAUCACCCAUGUAGAAGGGCCAAAAA [Dora Explored 9 - Jieux - Exclusion 2]” was run?
Answer: 67.5 nM

Question: How did the “apparent KD of MS2 coat protein” value turn out when “GAGUAAGGAGGAUAUACAUGAGGAUCACCCAUGUAAAAAGGGAAAGUAGAAAAGUAGAGUAGAAGGCCUAUAGA [JR_Exc003_Sub1702]” was run?
Answer: 70.4 nM

Question: “AAGAUGUCAGGAUAUACAUAAAUAAAAAAUUAUGUUAAAACACAUGAGGAUCACCCAUGUAGAAGGGACAACAA [AJ 6]” was tested. Which “apparent KD of MS2 coat protein” value did it give?
Answer: 36.4 nM

Question: Which “apparent KD of MS2 coat protein” value does the source give for “GUGUACAGAGGAUAUACGGGAGCUAGGAAACUAGCAACCUCACAUGAGGAUCACCCAUGUAGAAGGCUGUACAC [Ex2: 752]” here?
Answer: 159 nM

Question: How did the “apparent KD of MS2 coat protein” value turn out when “AAAAAAGGAGGAUAUACGAACAUGUCAAAAGACGUGAAGGGACAUGAGGAUCACCCAUGUAGAAGGCUUAAAAA [JL Stem Breaker 4]” was run?
Answer: 42.2 nM

Question: With “GAAGAACAUGAGGAUCACCCAUGUCAGGAUAUGCAGAAGGGAAUAAUAACCUCUGGAAGCAGAAGGGACAAGAA [Ex 1 May 48]” as the sequence, how does the “apparent KD of MS2 coat protein” value read?
Answer: 33.5 nM

Question: “GGUGGCGUAGGAUAUACAUGAGGAUCACCCAUGUGAGAGAAAAAAGUGAGAAAGAAAAGUAGAAGGACGUUACG [salish99-ex3-126]” was tested. Which “apparent KD of MS2 coat protein” value did it give?
Answer: 40.3 nM

Question: How did the “apparent KD of MS2 coat protein” value turn out when “AAAAAGGAAGGAUAUACGAACAUGUCGAAAGACGUGAAGGGACAUGAGGAUCACCCAUGUAGAAGGUUCAAAAA [Mat - Exclusion 2 - JL mod - D80]” was run?
Answer: 33.6 nM

Question: With “AAAGGUACAGGAUAUGCGUGGAAAAAGUGUAUUCACCAACGACAUGAGGAUCACCCAUGUAGAAGGGUACCAAA [Mod of wbt1 from round 1]” as the sequence, how does the “apparent KD of MS2 coat protein” value read?
Answer: 25.9 nM

Question: Which “apparent KD of MS2 coat protein” value does the source give for “UAUAGACAUGAGGAUCACCCAUGUGAGGAUAUCGGUGACUACAGGACAUCACGUACAAUGAGAAGGCACAGAAA [JR_Exc001_Sub017]” here?
Answer: 40.3 nM

Question: Which “apparent KD of MS2 coat protein” value does the source give for “AAAAAACAUGAGGAUCACCCAUGUGAGGAUAUCAGUAGUCAGUCCUCGGAGUGAGUACUGAGAAGGCACAUAAA [Brourd 613 Mod 2- Jieux - Exclusion 1]” here?
Answer: 65.9 nM

Question: “UUUAAGUCAGGAUAUUCGGAUAGGAAAACGAAAACCUAUCCGAAGAAGGGACAUGAGGAUCACCCAUGUAAAAA [Starry Exclusion 4.3 (cataway round 1 mod)]” was tested. Which “apparent KD of MS2 coat protein” value did it give?
Answer: 52.1 nM

Question: For “AGAAAGUCAGGAUAUGUGGAAAAAAUAAAAAAAAUAAAAACACAGAAGGGACAUGAGGAUCACCCAUGUUAAGA [Mat - Exclusion 4 - Mayanna - D139]”, which “apparent KD of MS2 coat protein” value is on record?
Answer: 53.4 nM

Question: How did the “apparent KD of MS2 coat protein” value turn out when “AUAGGCCAAGGAUAUACAUGAGGAUCACCCAUGUAAAUAACUCGAUCAAAAUAAACAAGUAGAAGGUGGAAUAA [JR_Exc003_Sub204]” was run?
Answer: 25.1 nM

Question: Which “apparent KD of MS2 coat protein” value does the source give for “AAGAAGUCAGGAUAUACUAAAGAAAUAAAAAGAAAGAAAGAACAUGAGGAUCACCCAUGUAGAAGGGACAAGAA [Sewadjare Mentuhotep V]” here?
Answer: 67.4 nM

Question: Which “apparent KD of MS2 coat protein” value does the source give for “AAGGUACGAGGAUAUACAUAGAUACAGACACAUGUAGAUGUACAUGAGGAUCACCCAUGUAGAAGGCGUAUAUA [AJ 20]” here?
Answer: 60.7 nM

Question: With “AAAAAACAUGAGGAUCACCCAUGUCAGGAUAUCGUCAUAGAUGCAAAAGCAUCUAUGACGAGAAGGGACAUGCC [JL EX1 03]” as the sequence, how does the “apparent KD of MS2 coat protein” value read?
Answer: 103 nM

Question: How did the “apparent KD of MS2 coat protein” value turn out when “AAAAGCACAGGAUAUACAAGGAUAUGACGAAAGUCAUAAAAACAUGAGGAUCACCCAUGUAGAAGGGUGCAAAA [Mod of Meechl's... 64% 3]” was run?
Answer: 206 nM

Question: For “AACAGGACAGGAUAUACAUGAGGAUCACCCAUGUAGGAAACAAGCAGAGUACCAAACAGUAGAAGGGUCAUGGA [Ruby 29]”, which “apparent KD of MS2 coat protein” value is on record?
Answer: 31.3 nM

Question: Which “apparent KD of MS2 coat protein” value does the source give for “CUCAAGUGAGGAUAUCAGUAGUAAAAAAAUAAAAUUACUACUGAGAAGGCACAUGAGGAUCACCCAUGUGUCUU [EX4 333: Super Stable 33]” here?
Answer: 14.1 nM

Question: For “AAAAAACAUGAGGAUCACCCAUGUAAGGAUAUACCUAAAAAAAAAAAAAAAAAAAAUGGUAGAAGGUACAAAAA [excalibur12]”, which “apparent KD of MS2 coat protein” value is on record?
Answer: 28.1 nM

Question: With “AGAAAGGUAGGAUAUACGAAAAAAAAGGGUAGAAAAAAAACACAUGAGGAUCACCCAUGUAGAAGGACCAAAGA [Mat - Exclusion 2 - Tesla mod - D31]” as the sequence, how does the “apparent KD of MS2 coat protein” value read?
Answer: 35.2 nM

Question: For “GAAAGGUCAGGAUAUACGUUAUGCUAGUGCUCGUACUAUAAGUAGAAGGGACAUGAGGAUCACCCAUGUGAUAA [Kawasakiqro]”, which “apparent KD of MS2 coat protein” value is on record?
Answer: 45.2 nM

Question: “GCUGUCGAAGGAUAUACAUGAGGAUCACCCAUGUGAGAGAAAAAAGUGAGAAAGAAAAGUAGAAGGUCGGUAGG [salish99-ex3-97]” was tested. Which “apparent KD of MS2 coat protein” value did it give?
Answer: 29.6 nM

Question: Which “apparent KD of MS2 coat protein” value does the source give for “AAAAUACAUGAGGAUCACCCAUGUUAGGAUAUCGGAUAAAUAAAAUAAAAUAAAAUAACGAGAAGGGACAAUAA [Exclusion1 Malc#2]” here?
Answer: 24.6 nM

Question: How did the “apparent KD of MS2 coat protein” value turn out when “AAAAAACAUGAGGAUCACCCAUGUGAGGAUAUCGGUAGUGAGGGUAUAGUGUCAAUAGUGAGAAGGCGCAUAAA [Brourd 613 Mod 13 - Jieux - Exclusion 1]” was run?
Answer: 26.3 nM

Question: Which “apparent KD of MS2 coat protein” value does the source give for “GAGGAGUCAGGAUAUCGGGAAAGGUUGAGGAAGAGAAGAAGCGAGAAGGGACAUGAGGAUCACCCAUGUAGAAG [Default title]” here?
Answer: 46.7 nM

Reference: the supplement of paper PMC9170038
